Data: publication doi:10.64898/2025.12.14.694184 (bioRxiv, 2025)

B1: human TorsinA-StrepTagII-FLAG-StrepTagII (enzyme, UniProt O14656 21-332, looked up)
chain: VEPISLGLALAGVLTGYIYPRLYCLFAECCGQKRSLSREALQKDLDDNLFGQHLAKKIILNAVFGFINNPKPKKPLTLSLHGWTGTGKNFVSKIIAENIYEGGLNSDYVHLFVATLHFPHASNITLYKDQLQLWIRGNVSACARSIFIFDEMDKMHAGLIDAIKPFLDYYDLVDGVSYQKAMFIFLSNAGAERITDVALDFWRSGKQREDIKLKDIEHALSVSVFNNKNSGFWHSSLIDRNLIDYFVPFLPLEYKHLKMCIRVEMQSRGYEIDEDIVSRVAEEMTFFPKEERVFSDKGCKTVFTKLDYYYDD
B2: mouse CLCC1 N-terminal domain dimer (CLCC1-NTD-6×His) (domain or fragment, UniProt Q99LI2 19-184, looked up)
chain: HDDDWIDPTDMLNYDAASGTMRKSQVRSGTSEKKEVSPDSSEAEELSDCLHRLDSLTHKVDSCEKKKMKDYESQSNPVFRRYLNKILIEAGKLGLPDENKVEMRYDAEILLSRQTLLEIQKFLSGEEWKPGALDDALSDILINFKCHDSEAWKWQFEDYFGVDPYN
modifications: inter-molecular disulfide bonds in the dimer

What was measured:
native gel or EMSA = molecular target: the molecule itself; assay: native gel or EMSA
[1] = molecular target: B1; assay: pull-down
non-reducing SDS-PAGE = molecular target: the molecule itself; assay: non-reducing SDS-PAGE

binding result [1] | Binder | binding result (native gel or EMSA) | stoichiometry N (non-reducing SDS-PAGE)
– | B1 | binds | –
binds | B2 | – | 2
